Laboratory results reported in patent US20040005324A1 (INTRACEL RESOURCES, published 2004).

Columns and labels:
[1] = target: BSA (UniProt P02769 25-607); test: ELISA with purified Fab
[2] = target: RSV F glycoprotein of subgroup A isolate SW/669/′59 (respiratory syncytial virus, subgroup A); test: cell-based or functional assay
[3] = target: RSV F glycoprotein of subgroup A isolate Wash/11657/′60 (respiratory syncytial virus, subgroup A); test: cell-based or functional assay
[4] = target: RSV F glycoprotein of subgroup A isolate Wash/Bern/′65 (respiratory syncytial virus, subgroup A); test: cell-based or functional assay
[5] = target: RSV F glycoprotein of subgroup A isolate SL/863/′84 (respiratory syncytial virus, subgroup A); test: cell-based or functional assay
[6] = target: RSV F glycoprotein of subgroup A isolate SL/10849/′84 (respiratory syncytial virus, subgroup A); test: cell-based or functional assay
[7] = target: RSV F glycoprotein of subgroup A isolate SL/10865/′84 (respiratory syncytial virus, subgroup A); test: cell-based or functional assay
[8] = target: RSV F glycoprotein of subgroup A isolate OK/9970/′85 (respiratory syncytial virus, subgroup A); test: cell-based or functional assay
[9] = target: RSV F glycoprotein of subgroup A isolate Bir/6190/′89 (respiratory syncytial virus, subgroup A); test: cell-based or functional assay
[10] = target: RSV F glycoprotein of subgroup A isolate New/RSS-2/′76 (respiratory syncytial virus, subgroup A, UniProt P11209 26-574); test: cell-based or functional assay
[11] = target: RSV F glycoprotein of subgroup A isolate Bir/1734/′89 (respiratory syncytial virus, subgroup A); test: cell-based or functional assay
[12] = target: RSV F glycoprotein of subgroup B isolate WV/474R/′90 (respiratory syncytial virus, subgroup B); test: cell-based or functional assay
[13] = target: RSV F glycoprotein of subgroup B isolate WV/1293/′75 (respiratory syncytial virus, subgroup B); test: cell-based or functional assay
[14] = target: RSV F glycoprotein of subgroup B isolate WV/4843/′80 (respiratory syncytial virus, subgroup B); test: cell-based or functional assay
[15] = target: RSV F glycoprotein of subgroup B isolate Wash/18537/′62 (respiratory syncytial virus, subgroup B, UniProt P13843 26-574); test: cell-based or functional assay
[16] = target: RSV F glycoprotein of subgroup B isolate WV/14617/′85 (respiratory syncytial virus, subgroup B); test: cell-based or functional assay
[17] = target: RSV F glycoprotein of subgroup B isolate WV/17154/′85 (respiratory syncytial virus, subgroup B); test: cell-based or functional assay
[18] = target: RSV F glycoprotein of subgroup B isolate WV/20323/′87 (respiratory syncytial virus, subgroup B); test: cell-based or functional assay
[19] = target: RSV F glycoprotein of subgroup B isolate WV/285R/′90 (respiratory syncytial virus, subgroup B); test: cell-based or functional assay
[20] = target: RSV F glycoprotein of subgroup B isolate WV/401R/′90 (respiratory syncytial virus, subgroup B); test: cell-based or functional assay
[21] = target: RSV F glycoprotein of subgroup B isolate WV/2B/′87 (respiratory syncytial virus, subgroup B); test: cell-based or functional assay
[22] = target: RSV F glycoprotein of wild type RSV strain A2 (respiratory syncytial virus strain A2, UniProt P03420 26-574); test: cell-based or functional assay
[23] = target: RSV F glycoprotein of MARM v1237 (strain A2 escape mutant, substitution at aa 276) (respiratory syncytial virus strain A2, UniProt P03420 26-574); test: cell-based or functional assay
[24] = target: RSV F glycoprotein of MARM v1214 (strain A2 escape mutant, substitution at aa 276) (respiratory syncytial virus strain A2, UniProt P03420 26-574); test: cell-based or functional assay
[25] = target: RSV F glycoprotein of MARM v1129 (strain A2 escape mutant, substitution at aa 275) (respiratory syncytial virus strain A2, UniProt P03420 26-574); test: cell-based or functional assay
[26] = target: RSV F glycoprotein of MARM vN151 (strain A2 escape mutant, substitution at aa 272) (respiratory syncytial virus strain A2, UniProt P03420 26-574); test: cell-based or functional assay
[27] = target: RSV F glycoprotein of MARM v1200 (strain A2 escape mutant, substitution at aa 272) (respiratory syncytial virus strain A2, UniProt P03420 26-574); test: cell-based or functional assay
[28] = target: RSV F glycoprotein of MARM v1153 (strain A2 escape mutant, substitution at aa 262) (respiratory syncytial virus strain A2, UniProt P03420 26-574); test: cell-based or functional assay
[29] = target: RSV F glycoprotein of MARM v324 (strain A2 escape mutant, arginine to serine at residue 429 of the F1 subunit) (respiratory syncytial virus strain A2, UniProt P03420 26-574, limits assumed); test: cell-based or functional assay

Sequence of BSA (P02769 25-607 limits assumed): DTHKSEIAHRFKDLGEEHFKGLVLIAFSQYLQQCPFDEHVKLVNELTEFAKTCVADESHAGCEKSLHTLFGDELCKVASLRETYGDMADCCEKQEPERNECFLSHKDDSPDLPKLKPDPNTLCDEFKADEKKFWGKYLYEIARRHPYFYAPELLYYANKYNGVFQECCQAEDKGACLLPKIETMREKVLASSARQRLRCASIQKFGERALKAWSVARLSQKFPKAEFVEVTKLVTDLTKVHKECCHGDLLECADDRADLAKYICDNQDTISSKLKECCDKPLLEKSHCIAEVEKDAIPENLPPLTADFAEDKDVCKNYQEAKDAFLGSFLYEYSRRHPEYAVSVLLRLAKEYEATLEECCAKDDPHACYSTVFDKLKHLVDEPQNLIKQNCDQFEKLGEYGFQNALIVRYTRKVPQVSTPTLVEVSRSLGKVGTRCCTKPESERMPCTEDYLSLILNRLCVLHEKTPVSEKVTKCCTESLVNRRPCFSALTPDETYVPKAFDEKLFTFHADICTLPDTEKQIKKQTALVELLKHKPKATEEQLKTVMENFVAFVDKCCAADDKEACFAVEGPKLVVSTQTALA

B1: human monoclonal Fab RSVF2-5 (Fab, V domains shown)
VH: LEESGGDLVQPGRSLRLSCSTSGFSFGDYPVNWFRQAPGKGLEWLGIVRSRLYGGTLQYAASVEGRFTISRDDSKSIAYLHMNSLKSEDTAVYYCGVPVANIDYWGQGTLVTVSS
VL: LTQPHSVSESLGKTVTISCTRAGGRIASNYVQWYQQRPGSSPTTVIYEDNQRPFGVPDRFSGSIDTSSNSASLTISGLKTEDEADYYCQSYDSENPWVFGGGTKLTVLG
notes: CH1 and CL are therefore probably not in these entries; also called RSV Fab F2-5
binding result [1]: no binding
Specific neutralization activity (µg/ml): purified Fab for 60% plaque reduction, Vero cells [2]: 3 µg/mL
Specific neutralization activity (µg/ml): purified Fab for 60% plaque reduction, Vero cells [3]: 1.6 µg/mL
Specific neutralization activity (µg/ml): purified Fab for 60% plaque reduction, Vero cells [4]: 0.6 µg/mL
Specific neutralization activity (µg/ml): purified Fab for 60% plaque reduction, Vero cells [5]: 0.2 µg/mL
Specific neutralization activity (µg/ml): purified Fab for 60% plaque reduction, Vero cells [6]: 0.9 µg/mL
Specific neutralization activity (µg/ml): purified Fab for 60% plaque reduction, Vero cells [7]: 0.4 µg/mL
Specific neutralization activity (µg/ml): purified Fab for 60% plaque reduction, Vero cells [8]: 1.4 µg/mL
Specific neutralization activity (µg/ml): purified Fab for 60% plaque reduction, Vero cells [9]: 2.4 µg/mL
Specific neutralization activity (µg/ml): purified Fab for 60% plaque reduction, Vero cells [10]: 1.9 µg/mL
Specific neutralization activity (µg/ml): purified Fab for 60% plaque reduction, Vero cells [11]: 1.1 µg/mL
Specific neutralization activity (µg/ml): purified Fab for 60% plaque reduction, Vero cells [12]: 0.9 µg/mL
Specific neutralization activity (µg/ml): purified Fab for 60% plaque reduction, Vero cells [13]: 1 µg/mL
Specific neutralization activity (µg/ml): purified Fab for 60% plaque reduction, Vero cells [14]: 0.5 µg/mL
Specific neutralization activity (µg/ml): purified Fab for 60% plaque reduction, Vero cells [15]: 0.5 µg/mL
Specific neutralization activity (µg/ml): purified Fab for 60% plaque reduction, Vero cells [16]: 2.6 µg/mL
Specific neutralization activity (µg/ml): purified Fab for 60% plaque reduction, Vero cells [17]: 2.1 µg/mL
Specific neutralization activity (µg/ml): purified Fab for 60% plaque reduction, Vero cells [18]: 0.8 µg/mL
Specific neutralization activity (µg/ml): purified Fab for 60% plaque reduction, Vero cells [19]: 0.6 µg/mL
Specific neutralization activity (µg/ml): purified Fab for 60% plaque reduction, Vero cells [20]: 0.7 µg/mL
Specific neutralization activity (µg/ml): purified Fab for 60% plaque reduction, Vero cells [21]: 0.3 µg/mL
Dose for 60% plaque reduction [22]: 0.1 µg/mL
Dose for 60% plaque reduction [23]: < 0.3 µg/mL
Dose for 60% plaque reduction [24]: 0.1 µg/mL
Dose for 60% plaque reduction [25]: 0.5 µg/mL
Dose for 60% plaque reduction [26]: 0.4 µg/mL
Dose for 60% plaque reduction [27]: 0.3 µg/mL
Dose for 60% plaque reduction [28]: 0.9 µg/mL
Dose for 60% plaque reduction [29]: > 18 µg/mL
